These results are taken from article PMC8444507.

Assay [1] concerns the target SARS-CoV spike receptor-binding domain (S-RBD), wild-type (SARS-CoV) (UniProt P59594).
The target in assay [2] is SARS-CoV-2 spike receptor-binding domain (S-RBD), wild-type (SARS-CoV-2) (UniProt P0DTC2).

In turn, “ACE2[W19/W27/Y330]-Fc (from UniProt Q9BYF1 19-615) (Fc fusion)” gave an IC50 of entry inhibition, SARS-CoV pseudovirus on HEK293T-ACE2 cells in assay [1] of 0.49 µg/mL. For the same substance, the IC50 of entry inhibition, wild-type SARS-CoV-2 pseudovirus on HEK293T-ACE2 cells in assay [2] turned out to be 0.53 µg/mL.
On the same counts, the results for “ACE2[W19/Y330]-Fc (from UniProt Q9BYF1 19-615) (Fc fusion)” are 0.34 µg/mL and 0.09 µg/mL.
On the same counts, the results for “ACE2[W27/Y330]-Fc (from UniProt Q9BYF1 19-615) (Fc fusion)” are 1.04 µg/mL and 0.25 µg/mL.
